Where a chain is given by its changes, count along the chain named.
B1: anti IgG-CH1 VHH #01 (VHH)
VHH: QVQLQESGGGLVQAGGSLRLSCAVSGNTLSRYAMGWFRQTPGNEREFVAAIRWNNGATYYADSVEGRFTISRDSGKNTVYLQMNNLQPEDTAVYYCAGRFLGYASSNAYHEALYNYDYWGQGTQVTVSS
B2: anti IgG-CH1 VHH #82 (VHH)
VHH: B1 VHH with T40A, A57N, E65K, G75A, Y80F, N85S, Y95F, G98A, G102P
B3: anti IgG-CH1 VHH #10 (VHH)
VHH: B1 VHH with N43K
B4: anti IgG-CH1 VHH #83 (VHH)
VHH: B1 VHH with E6D, T40A, A57N, G75A, N85S, G98A, G102P
B5: anti IgG-CH1 VHH #19 (VHH)
VHH: B1 VHH with E65K
B6: anti IgG-CH1 VHH #84 (VHH)
VHH: B1 VHH with E6D, T40A, A57N, E65K, G75A, N85S, G98A, G102P
B7: anti IgG-CH1 VHH #28 (VHH)
VHH: B1 VHH with Q87K
B8: anti IgG-CH1 VHH #85 (VHH)
VHH: B1 VHH with T40A, N85S
B9: anti IgG-CH1 VHH #37 (VHH)
VHH: B1 VHH with N43K, E65K
B10: anti IgG-CH1 VHH #86 (VHH)
VHH: B1 VHH with E6D, L11S, T40A, A57N, E65K, G75A, N85S, Y95F, G98A, G102P
B11: anti IgG-CH1 VHH #46 (VHH)
VHH: B1 VHH with N43K, Q87K
B12: anti IgG-CH1 VHH #87 (VHH)
VHH: QVQLQESGGGLVQAGASLRLSCEVSGNTLSQYAMGWFRQVPGHKREFVAAIRWTNGNTYYADSVEGRFTISRDSAKKTVYLQMNSLQPDDTAIYYCAARFLPYASSNAYHESLYNYDYWGQGTQVTVSS
B13: anti IgG-CH1 VHH #55 (VHH)
VHH: B1 VHH with E65K, Q87K
B14: anti IgG-CH1 VHH #88 (VHH)
VHH: QVQLQESGGGSVQAGGSLRLSCAVSGNTLSRYAMGWFRQAPGNEREFVAAIRWNNGNTYYADSVEGRFTISRYSAKNLVYLQMNSLQAEDTAIYYCAARFLPYASSNAYHEALYNYDYWGQGTQVTVSS
B15: anti IgG-CH1 VHH #64 (VHH)
VHH: B1 VHH with N43K, E65K, Q87K
B16: anti IgG-CH1 VHH #89 (VHH)
VHH: B1 VHH with T40A, A57N, E65K, G75A, N85S, G98S, G102P
B17: anti IgG-CH1 VHH #73 (VHH)
VHH: B1 VHH with E65K, K76R, Q87K

What follows are binders tested against polyclonal human IgG (assay: affinity chromatography; VHH on Sepharose resin at about 15 mg/ml ligand density).

Q: For B1, which DBC (dynamic binding capacity) (mg human IgG/ml resin) is on record?
A: Its DBC (dynamic binding capacity) (mg human IgG/ml resin) is 28.

These binders were tested against polyclonal human IgG (assay: affinity chromatography; VHH coupled to NHS-Sepharose 4B FF, polyclonal human IgG 0.5 mg/ml in PBS pH 7.4, 150 cm/hr).

Q: For B1, which DBC (dynamic binding capacity) is on record?
A: Its DBC (dynamic binding capacity) is 8.74 mg/mL.

Q: With B2 as the binder, how does the DBC (dynamic binding capacity) read?
A: Its DBC (dynamic binding capacity) is 6.69 mg/mL.

Q: B3 was tested. Which DBC (dynamic binding capacity) did it give?
A: The DBC (dynamic binding capacity) was 12 mg/mL.

Q: Which DBC (dynamic binding capacity) does the source give for B4 here?
A: The DBC (dynamic binding capacity) was 8.46 mg/mL.

Q: How did the DBC (dynamic binding capacity) turn out when B5 was run?
A: Its DBC (dynamic binding capacity) is 9.4 mg/mL.

Q: B6 was tested. Which DBC (dynamic binding capacity) did it give?
A: The DBC (dynamic binding capacity) was 8.27 mg/mL.

Q: With B7 as the binder, how does the DBC (dynamic binding capacity) read?
A: Its DBC (dynamic binding capacity) is 12.5 mg/mL.

Q: Which DBC (dynamic binding capacity) does the source give for B8 here?
A: Its DBC (dynamic binding capacity) is 11.9 mg/mL.

Q: B9 was tested. Which DBC (dynamic binding capacity) did it give?
A: The DBC (dynamic binding capacity) was 9.8 mg/mL.

Q: B10 was tested. Which DBC (dynamic binding capacity) did it give?
A: Its DBC (dynamic binding capacity) is 4.98 mg/mL.

Q: With B11 as the binder, how does the DBC (dynamic binding capacity) read?
A: The DBC (dynamic binding capacity) was 11.2 mg/mL.

Q: With B12 as the binder, how does the DBC (dynamic binding capacity) read?
A: Its DBC (dynamic binding capacity) is 5.64 mg/mL.

Q: With B13 as the binder, how does the DBC (dynamic binding capacity) read?
A: The DBC (dynamic binding capacity) was 11.3 mg/mL.

Q: How did the DBC (dynamic binding capacity) turn out when B14 was run?
A: Its DBC (dynamic binding capacity) is 7.31 mg/mL.

Q: For B15, which DBC (dynamic binding capacity) is on record?
A: The DBC (dynamic binding capacity) was 10.2 mg/mL.

Q: For B16, which DBC (dynamic binding capacity) is on record?
A: The DBC (dynamic binding capacity) was 5.61 mg/mL.

Q: How did the DBC (dynamic binding capacity) turn out when B17 was run?
A: The DBC (dynamic binding capacity) was 11.7 mg/mL.
